According to the supplement of paper PMC10065799, “High-throughput profiling of sequence recognition by tyrosine kinases and SH2 domains using bacterial peptide display” (eLife, 2023):

Assays:
SHP2-C SH2 = assay: SH2 binding enrichment of the phosphorylated peptide, bacterial display (enrichment ratio); higher = better substrate or ligand; peptides without Tyr show the background
c-Src SH2 = assay: as above
Grb2 SH2 = Grb2 SH2 (UniProt P62993); assay: as above
Hck = Hck (UniProt P08631); assay: phosphorylation enrichment, bacterial display (enrichment ratio); higher = better substrate or ligand; peptides without Tyr show the background
Fes = Fes (UniProt P07332); assay: as above
Sequence of Fes (P07332 whole entry, looked up): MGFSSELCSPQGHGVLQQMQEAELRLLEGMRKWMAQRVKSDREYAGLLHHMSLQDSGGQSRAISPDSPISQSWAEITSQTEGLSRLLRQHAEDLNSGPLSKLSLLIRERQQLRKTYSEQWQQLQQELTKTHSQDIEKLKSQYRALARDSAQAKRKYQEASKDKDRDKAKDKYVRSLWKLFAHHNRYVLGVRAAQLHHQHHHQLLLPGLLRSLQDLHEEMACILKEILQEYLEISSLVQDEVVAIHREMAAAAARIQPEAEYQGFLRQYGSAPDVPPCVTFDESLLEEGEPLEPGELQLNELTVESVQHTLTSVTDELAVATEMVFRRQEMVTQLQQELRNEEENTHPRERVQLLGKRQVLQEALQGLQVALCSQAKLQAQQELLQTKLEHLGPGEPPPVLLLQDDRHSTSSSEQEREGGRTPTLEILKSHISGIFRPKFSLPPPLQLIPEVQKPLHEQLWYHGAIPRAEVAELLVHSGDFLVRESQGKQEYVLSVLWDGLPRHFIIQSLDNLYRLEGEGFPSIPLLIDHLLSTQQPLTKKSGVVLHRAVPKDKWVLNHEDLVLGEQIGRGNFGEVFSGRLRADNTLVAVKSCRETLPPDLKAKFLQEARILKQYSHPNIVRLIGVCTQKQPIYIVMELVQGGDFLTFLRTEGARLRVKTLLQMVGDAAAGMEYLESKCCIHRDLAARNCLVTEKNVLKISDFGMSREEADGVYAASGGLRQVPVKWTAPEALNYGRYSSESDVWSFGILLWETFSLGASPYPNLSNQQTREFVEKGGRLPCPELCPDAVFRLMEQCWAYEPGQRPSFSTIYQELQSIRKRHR

FGFR3 = FGFR3 (UniProt P22607); assay: as above
Sequence of FGFR3 (P22607 whole entry, looked up): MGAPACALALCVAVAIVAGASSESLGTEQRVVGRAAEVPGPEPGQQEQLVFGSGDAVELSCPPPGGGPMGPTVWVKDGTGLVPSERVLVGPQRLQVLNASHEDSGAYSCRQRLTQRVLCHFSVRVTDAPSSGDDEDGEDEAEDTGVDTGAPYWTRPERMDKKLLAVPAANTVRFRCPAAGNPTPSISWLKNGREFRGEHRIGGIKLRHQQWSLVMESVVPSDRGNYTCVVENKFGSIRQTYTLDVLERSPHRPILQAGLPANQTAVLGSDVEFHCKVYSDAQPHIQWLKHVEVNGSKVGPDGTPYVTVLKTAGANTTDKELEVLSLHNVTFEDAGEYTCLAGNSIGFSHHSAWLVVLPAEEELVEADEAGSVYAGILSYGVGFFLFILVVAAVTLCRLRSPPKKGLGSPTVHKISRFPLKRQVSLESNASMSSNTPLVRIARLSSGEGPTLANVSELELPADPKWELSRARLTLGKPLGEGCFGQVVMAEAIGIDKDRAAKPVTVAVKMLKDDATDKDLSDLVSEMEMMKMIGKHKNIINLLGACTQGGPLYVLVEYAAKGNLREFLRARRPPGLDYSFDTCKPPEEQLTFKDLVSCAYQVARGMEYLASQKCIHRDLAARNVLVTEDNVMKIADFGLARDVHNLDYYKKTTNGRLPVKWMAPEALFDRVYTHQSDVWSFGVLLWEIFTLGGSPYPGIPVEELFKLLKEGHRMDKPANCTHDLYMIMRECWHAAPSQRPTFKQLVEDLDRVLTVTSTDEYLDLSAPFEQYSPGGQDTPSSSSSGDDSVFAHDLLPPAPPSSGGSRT

Fyn = Fyn (UniProt P06241); assay: as above
Sequence of Fyn (P06241 whole entry, looked up): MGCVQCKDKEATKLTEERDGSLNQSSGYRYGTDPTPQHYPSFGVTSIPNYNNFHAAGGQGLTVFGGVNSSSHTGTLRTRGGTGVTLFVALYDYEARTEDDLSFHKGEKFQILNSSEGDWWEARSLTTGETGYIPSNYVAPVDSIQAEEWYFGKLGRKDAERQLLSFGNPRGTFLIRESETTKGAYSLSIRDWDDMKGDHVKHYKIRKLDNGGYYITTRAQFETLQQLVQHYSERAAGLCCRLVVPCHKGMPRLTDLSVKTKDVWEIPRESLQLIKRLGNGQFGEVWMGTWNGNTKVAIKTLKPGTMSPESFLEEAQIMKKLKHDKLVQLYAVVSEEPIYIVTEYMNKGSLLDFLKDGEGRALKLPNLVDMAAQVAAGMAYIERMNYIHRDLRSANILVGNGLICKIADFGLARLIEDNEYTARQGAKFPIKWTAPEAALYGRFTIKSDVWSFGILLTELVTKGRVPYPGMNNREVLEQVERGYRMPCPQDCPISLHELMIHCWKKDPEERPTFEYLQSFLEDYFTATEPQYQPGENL

Fer (mouse) = assay: as above
Jak2 = Jak2 (UniProt O60674); assay: as above
FGFR1 = FGFR1 (UniProt P11362); assay: as above
Sequence of FGFR1 (P11362 whole entry, looked up): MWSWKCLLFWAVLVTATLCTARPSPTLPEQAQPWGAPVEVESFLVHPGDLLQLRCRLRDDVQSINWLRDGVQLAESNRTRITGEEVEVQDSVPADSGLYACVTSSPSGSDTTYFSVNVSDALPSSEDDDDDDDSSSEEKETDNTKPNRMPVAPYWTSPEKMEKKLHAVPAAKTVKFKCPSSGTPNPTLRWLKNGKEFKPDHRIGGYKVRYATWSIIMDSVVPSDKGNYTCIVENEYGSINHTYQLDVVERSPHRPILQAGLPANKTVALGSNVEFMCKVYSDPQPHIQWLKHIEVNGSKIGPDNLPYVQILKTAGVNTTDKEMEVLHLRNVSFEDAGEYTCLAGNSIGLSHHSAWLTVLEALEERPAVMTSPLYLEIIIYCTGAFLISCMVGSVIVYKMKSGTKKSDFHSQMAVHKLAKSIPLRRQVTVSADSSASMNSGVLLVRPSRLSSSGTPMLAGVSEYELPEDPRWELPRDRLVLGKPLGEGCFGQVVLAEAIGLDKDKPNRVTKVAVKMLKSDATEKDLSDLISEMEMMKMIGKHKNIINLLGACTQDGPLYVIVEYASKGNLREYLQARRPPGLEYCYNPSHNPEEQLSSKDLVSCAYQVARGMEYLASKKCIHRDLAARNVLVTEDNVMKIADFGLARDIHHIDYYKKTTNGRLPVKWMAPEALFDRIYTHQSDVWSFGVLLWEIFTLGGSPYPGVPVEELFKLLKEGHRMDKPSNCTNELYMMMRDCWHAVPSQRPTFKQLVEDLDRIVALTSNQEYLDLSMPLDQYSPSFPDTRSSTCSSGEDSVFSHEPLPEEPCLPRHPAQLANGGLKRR

MERTK = MERTK (UniProt Q12866); assay: as above
Sequence of MERTK (Q12866 whole entry, looked up): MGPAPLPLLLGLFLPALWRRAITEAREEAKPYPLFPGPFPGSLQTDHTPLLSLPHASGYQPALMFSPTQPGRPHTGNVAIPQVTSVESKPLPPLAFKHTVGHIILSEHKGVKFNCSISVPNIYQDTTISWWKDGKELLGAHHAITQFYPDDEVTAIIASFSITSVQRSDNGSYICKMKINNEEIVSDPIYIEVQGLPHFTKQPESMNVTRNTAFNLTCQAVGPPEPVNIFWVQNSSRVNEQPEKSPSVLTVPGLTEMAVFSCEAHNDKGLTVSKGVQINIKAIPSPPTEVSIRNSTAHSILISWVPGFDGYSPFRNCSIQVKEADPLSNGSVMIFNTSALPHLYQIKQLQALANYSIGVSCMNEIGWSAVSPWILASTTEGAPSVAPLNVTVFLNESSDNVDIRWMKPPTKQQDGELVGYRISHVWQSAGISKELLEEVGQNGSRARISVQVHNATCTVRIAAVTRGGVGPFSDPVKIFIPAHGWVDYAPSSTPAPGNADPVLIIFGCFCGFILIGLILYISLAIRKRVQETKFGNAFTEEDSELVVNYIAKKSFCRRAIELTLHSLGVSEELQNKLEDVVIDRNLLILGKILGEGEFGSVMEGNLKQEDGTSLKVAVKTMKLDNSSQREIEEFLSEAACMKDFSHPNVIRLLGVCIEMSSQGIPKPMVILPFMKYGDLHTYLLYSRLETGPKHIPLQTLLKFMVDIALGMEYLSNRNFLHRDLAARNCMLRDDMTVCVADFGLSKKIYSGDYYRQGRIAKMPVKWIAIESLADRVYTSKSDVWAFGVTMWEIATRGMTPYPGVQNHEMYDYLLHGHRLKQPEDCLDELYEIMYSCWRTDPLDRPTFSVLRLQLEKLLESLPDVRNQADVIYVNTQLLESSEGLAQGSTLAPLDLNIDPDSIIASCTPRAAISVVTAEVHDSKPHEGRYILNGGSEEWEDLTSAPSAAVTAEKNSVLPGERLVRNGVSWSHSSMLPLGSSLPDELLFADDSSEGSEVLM

EPHB2 = EPHB2 (UniProt P29323); assay: as above
Sequence of EPHB2 (P29323 whole entry, looked up): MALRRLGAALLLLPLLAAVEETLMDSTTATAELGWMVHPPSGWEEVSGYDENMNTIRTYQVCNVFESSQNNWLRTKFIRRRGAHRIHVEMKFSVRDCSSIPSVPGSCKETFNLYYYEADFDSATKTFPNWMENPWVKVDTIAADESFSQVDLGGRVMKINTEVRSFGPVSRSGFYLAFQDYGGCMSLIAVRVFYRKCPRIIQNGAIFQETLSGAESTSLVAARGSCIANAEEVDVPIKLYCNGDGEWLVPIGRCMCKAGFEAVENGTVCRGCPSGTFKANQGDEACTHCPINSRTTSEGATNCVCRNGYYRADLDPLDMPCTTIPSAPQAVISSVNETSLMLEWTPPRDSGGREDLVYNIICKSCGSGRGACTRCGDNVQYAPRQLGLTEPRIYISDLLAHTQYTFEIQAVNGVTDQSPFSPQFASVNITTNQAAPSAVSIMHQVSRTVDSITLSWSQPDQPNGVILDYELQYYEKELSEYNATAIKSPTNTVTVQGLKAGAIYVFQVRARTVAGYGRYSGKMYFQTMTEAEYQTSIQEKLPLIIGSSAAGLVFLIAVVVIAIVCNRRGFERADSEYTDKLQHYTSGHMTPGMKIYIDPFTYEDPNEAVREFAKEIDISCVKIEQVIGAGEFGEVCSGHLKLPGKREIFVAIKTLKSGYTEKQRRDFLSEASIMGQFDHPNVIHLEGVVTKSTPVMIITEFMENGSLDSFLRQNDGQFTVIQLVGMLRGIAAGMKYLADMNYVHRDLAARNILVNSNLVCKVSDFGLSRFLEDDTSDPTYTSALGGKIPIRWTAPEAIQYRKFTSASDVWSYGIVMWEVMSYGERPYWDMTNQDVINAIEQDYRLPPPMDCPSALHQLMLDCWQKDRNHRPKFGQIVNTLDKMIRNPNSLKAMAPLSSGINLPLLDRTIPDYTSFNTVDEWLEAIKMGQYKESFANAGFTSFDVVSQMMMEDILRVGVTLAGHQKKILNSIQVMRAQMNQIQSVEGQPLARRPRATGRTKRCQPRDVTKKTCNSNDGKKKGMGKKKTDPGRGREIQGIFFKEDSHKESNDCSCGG

AncSZ = assay: as above
EPHB1 = EPHB1 (UniProt P54762); assay: as above
c-Abl (mouse) = assay: as above
c-Src = assay: as above
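Wherever SH2 binding enrichment of the phosphorylated peptide, bacterial display is given: peptide library displayed on the E. coli surface as eCPX fusions, selected cells deep-sequenced, score is each peptide's frequency after selection divided by its frequency in the input.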
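Wherever phosphorylation enrichment, bacterial display is given: 11-residue human phosphosite peptides and single-mutation variants displayed on the E. coli surface, counted by deep sequencing, each peptide's frequency after selection divided by its frequency in the unselected input library; frequency after pTyr selection over input frequency; kinase dosed for 20-30% of maximal phosphorylation in three min.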

Row | Sequence | SH2 binding enrichment (SHP2-C SH2) | SH2 binding enrichment (c-Src SH2) | SH2 binding enrichment (Grb2 SH2) | phosphorylation enrichment (Hck) | phosphorylation enrichment (Fes) | phosphorylation enrichment (FGFR3) | phosphorylation enrichment (Fyn) | phosphorylation enrichment (Fer (mouse)) | phosphorylation enrichment (Jak2) | phosphorylation enrichment (FGFR1) | phosphorylation enrichment (MERTK) | phosphorylation enrichment (EPHB2) | phosphorylation enrichment (AncSZ) | phosphorylation enrichment (EPHB1) | phosphorylation enrichment (c-Abl (mouse)) | phosphorylation enrichment (c-Src)
1 | PGPPGYCDSSQ [COL12A1_Y3043] | 0.692 | 0.603 | 0.979 | 0.639 | 1.41 | 0.941 | 0.643 | 0.77 | 1.08 | 0.461 | 0.505 | 0.492 | 1.03 | 0.914 | 0.707 | 0.594
2 | DTLMEYLENPK [CYCS_Y68] | 0.872 | 0.502 | 0.915 | 0.69 | 1.49 | 0.905 | 0.484 | 0.677 | 1.28 | 0.511 | 0.529 | 0.682 | 1.51 | 0.672 | 0.95 | 0.562
3 | RARPPYTVAAD [ANKZF1_Y572] | 1.14 | 0.933 | 1.27 | 0.45 | 0.591 | 0.458 | 0.35 | 0.443 | 0.58 | 0.39 | 0.418 | 0.378 | 0.551 | 0.4 | 0.466 | 0.349
4 | FGMSTYITRED [FNDC3B_Y180_YF] | 0.745 | 0.563 | 0.802 | 0.743 | 1.11 | 0.676 | 0.676 | 0.533 | 0.95 | 0.581 | 0.437 | 0.45 | 0.961 | 0.776 | 0.693 | 0.692
5 | TFSPPYYHRNC [HGD_Y333_R330S] | 0.859 | 0.703 | 1.06 | 0.531 | 0.813 | 0.654 | 0.5 | 0.497 | 0.83 | 0.565 | 0.526 | 0.52 | 0.822 | 0.45 | 0.612 | 0.535
6 | IGEGTSGVVFK [CDK2_Y15_Y15S_YF] | 0.786 | 0.515 | 0.844 | 0.449 | 0.878 | 0.561 | 0.365 | 0.382 | 0.582 | 0.339 | 0.409 | 0.457 | 0.66 | 0.418 | 0.501 | 0.405
7 | QEKKGYFEDRR [GLUL_Y336] | 0.761 | 0.952 | 1.02 | 0.792 | 1 | 0.733 | 0.906 | 0.821 | 0.628 | 0.682 | 0.605 | 0.577 | 0.907 | 0.618 | 1.2 | 0.469
8 | CGTPTCLAPEV [CHEK2_Y390_Y390C] | 0.932 | 0.608 | 0.904 | 0.436 | 1.1 | 0.627 | 0.504 | 0.54 | 0.816 | 0.566 | 0.491 | 0.695 | 1.18 | 0.545 | 0.759 | 0.454
9 | PEADKYRLTYA [FGG_Y300] | 0.736 | 0.392 | 0.806 | 1.62 | 1.51 | 1.14 | 0.626 | 0.828 | 1.13 | 0.888 | 0.777 | 1.09 | 1.61 | 0.832 | 0.825 | 0.604
10 | GNHVSYFQSDG [CACNA1C_Y1757_YF] | 0.706 | 0.618 | 0.84 | 0.445 | 0.791 | 0.488 | 0.458 | 0.369 | 0.636 | 0.495 | 0.443 | 0.427 | 0.656 | 0.373 | 0.517 | 0.42
11 | IDPFTYTPFGS [CYP3A4_Y432_I431T_YF] | 0.863 | 0.597 | 0.746 | 1.18 | 0.851 | 0.523 | 0.91 | 0.587 | 0.755 | 0.486 | 0.561 | 0.705 | 0.724 | 0.431 | 0.581 | 2.88
12 | YETSHYLASPD [CTNND2_Y1217_P1218L] | 0.675 | 1.1 | 1.11 | 0.554 | 0.961 | 0.633 | 0.523 | 0.685 | 0.809 | 0.649 | 0.784 | 0.767 | 1.09 | 0.59 | 0.821 | 0.529
13 | RHTRSYDFTEG [FGF7_Y56_M59T_YF] | 0.611 | 0.427 | 0.88 | 0.387 | 0.695 | 0.382 | 0.366 | 0.399 | 0.444 | 0.411 | 0.35 | 0.492 | 0.557 | 0.377 | 0.563 | 0.351
14 | NAGAFYVLSTL [FLVCR2_Y325_A326V] | 0.6 | 0.489 | 0.634 | 0.476 | 1.17 | 0.699 | 0.464 | 0.525 | 0.995 | 0.483 | 0.705 | 0.573 | 1.03 | 0.55 | 0.69 | 0.523

Further lines, with some results ahead:

Row | SH2 binding enrichment (SHP2-C SH2) | SH2 binding enrichment (c-Src SH2) | SH2 binding enrichment (Grb2 SH2) | Sequence | phosphorylation enrichment (Hck) | phosphorylation enrichment (Fes) | phosphorylation enrichment (FGFR3) | phosphorylation enrichment (Fyn) | phosphorylation enrichment (Fer (mouse)) | phosphorylation enrichment (Jak2) | phosphorylation enrichment (FGFR1) | phosphorylation enrichment (MERTK) | phosphorylation enrichment (EPHB2) | phosphorylation enrichment (AncSZ) | phosphorylation enrichment (EPHB1) | phosphorylation enrichment (c-Abl (mouse)) | phosphorylation enrichment (c-Src)
15 | 0.752 | 0.486 | 0.826 | LEQQKYTVTID [IKBKB_Y199_V203I] | 0.682 | 1.57 | 0.975 | 0.638 | 0.518 | 1.02 | 0.75 | 0.602 | 0.81 | 1.27 | 0.932 | 0.696 | 0.569
16 | 0.614 | 1.37 | 0.881 | LARDMYDKEYY [MET_Y1230] | 0.765 | 1.43 | 0.973 | 0.624 | 0.71 | 1.41 | 0.921 | 0.449 | 0.627 | 1.83 | 0.815 | 0.652 | 0.673
17 | 0.812 | 7.59 | 0.693 | NDTAGYFIIGG [SEL1L3_Y399] | 0.601 | 1.14 | 1.34 | 0.582 | 0.494 | 6.38 | 1.77 | 0.834 | 0.523 | 1.15 | 0.547 | 0.78 | 0.584
18 | 0.74 | 0.554 | 0.794 | SDVCMYRKNIF [SYNE2_Y570_YF] | 0.355 | 1.12 | 0.712 | 0.371 | 0.354 | 0.931 | 0.48 | 0.448 | 0.479 | 0.906 | 0.536 | 0.793 | 0.436
19 | 0.486 | 0.544 | 0.661 | SIDLGYHKDLQ [NF1_Y1169_G1166D] | 0.454 | 0.777 | 0.485 | 0.51 | 0.503 | 0.856 | 0.607 | 0.531 | 0.478 | 1.17 | 0.46 | 0.557 | 0.552
20 | 0.849 | 0.854 | 0.954 | NKVKFYIPDMN [NCR1_Y84] | 0.432 | 0.865 | 0.66 | 0.396 | 0.448 | 0.8 | 0.432 | 0.388 | 0.476 | 0.743 | 0.496 | 0.602 | 0.567
21 | 0.685 | 0.553 | 0.83 | GIKAAYEAERG [LMNA_Y81_L85R] | 0.406 | 0.755 | 0.487 | 0.329 | 0.365 | 0.517 | 0.403 | 0.347 | 0.363 | 0.566 | 0.344 | 0.475 | 0.344
22 | 1.21 | 0.812 | 1.01 | HCHEGYILHGA [SVEP1_Y2921] | 0.827 | 1.78 | 0.768 | 0.888 | 0.45 | 1.94 | 0.722 | 0.945 | 0.746 | 1.45 | 1.27 | 1.61 | 1.12
23 | 0.819 | 0.454 | 0.802 | IEPGIYIPEDD [XPNPEP3_Y455] | 0.592 | 1.38 | 0.902 | 0.59 | 0.576 | 1.24 | 0.521 | 0.558 | 0.523 | 1.23 | 0.598 | 1.05 | 0.702
24 | 1.56 | 1.56 | 1.21 | VQVAYYTMMMN [SPATA17_Y84] | 1.65 | 1.54 | 6.58 | 1.48 | 3.67 | 4.11 | 8.59 | 6.47 | 1.17 | 1.81 | 2.52 | 1.15 | 2.56
25 | 0.842 | 0.751 | 0.902 | PIYLYYLMDLS [ITGB2_Y131_D128Y] | 4.44 | 3.42 | 13.9 | 5.41 | 4.54 | 8.11 | 13.6 | 11.1 | 6.17 | 4.09 | 7.52 | 3.32 | 6.42
26 | 1.1 | 0.526 | 0.914 | PLGPLYASSNT [INSR_Y992_P997T] | 3.67 | 0.949 | 0.73 | 0.908 | 1.1 | 0.723 | 0.633 | 1.12 | 0.783 | 1.87 | 0.896 | 1.51 | 1.22
27 | 0.492 | 0.495 | 0.814 | PSTYRYERGSR [INPPL1_Y663_P659S] | 0.661 | 0.59 | 0.588 | 0.721 | 0.474 | 0.475 | 0.641 | 0.561 | 0.511 | 0.718 | 0.663 | 0.446 | 0.546
28 | 0.689 | 0.501 | 0.902 | GVIKEYQIRQV [USH2A_Y3623] | 0.363 | 0.575 | 0.476 | 0.356 | 0.353 | 0.606 | 0.454 | 0.359 | 0.349 | 0.627 | 0.376 | 0.422 | 0.372
29 | 0.54 | 0.482 | 1.06 | VSSPKYGGDDE [TMCC2_Y473_S475G] | 0.429 | 0.903 | 0.573 | 0.535 | 0.451 | 0.631 | 0.477 | 0.416 | 0.379 | 0.96 | 0.437 | 0.517 | 0.424
